Measurements reported in patent US20220031857A1.

Columns and labels:
[1] = molecular target: recombinant human TfR1 (transferrin receptor 1) (human) (UniProt P02786); assay: Octet, human TfR1 immobilised; 8D3 as first antibody, which does not bind human TfR1 (grey column); white cell; cont. taken as the control VNAR F02
[2] = molecular target: recombinant human TfR1 (transferrin receptor 1) (human) (UniProt P02786); assay: Octet, human TfR1 immobilised on biosensors; row buffer (no first antibody), column cont. (taken as the control VNAR F02)
[3] = molecular target: recombinant mouse TfR1 (transferrin receptor 1) (mouse) (UniProt Q62351); assay: SPR (Biacore), single-cycle kinetics, His-tagged TfR1 captured, VNAR-Fc injected
[4] = molecular target: recombinant human TfR1 (transferrin receptor 1) (human) (UniProt P02786); assay: as above
[5] = molecular target: recombinant mouse TfR1 (transferrin receptor 1) (mouse) (UniProt Q62351); assay: ELISA, plate coated with 1 µg/ml recombinant mouse TfR1, purified VNAR-Fc titrated, 4-parameter fit
[6] = molecular target: recombinant mouse TfR1 (transferrin receptor 1) (mouse) (UniProt Q62351); assay: Octet, mouse TfR1 on anti-His biosensors, analyte 10 nM, PBS pH 6.0
[7] = molecular target: recombinant mouse TfR1 (transferrin receptor 1) (mouse) (UniProt Q62351); assay: Octet, mouse TfR1 immobilised on biosensors; row buffer (no first antibody), column cont. (taken as the control VNAR F02)
[8] = molecular target: recombinant mouse TfR1 (transferrin receptor 1) (mouse) (UniProt Q62351); assay: ELISA on coated mouse TfR1, purified VNAR-Fc
[9] = molecular target: recombinant mouse TfR1 (transferrin receptor 1) (mouse) (UniProt Q62351); assay: Octet, mouse TfR1 on anti-His biosensors, analyte 10 nM, PBS pH 7.2
[10] = molecular target: recombinant human TfR1 (transferrin receptor 1) (human) (UniProt P02786); assay: ELISA on coated human TfR1, purified VNAR-Fc
[11] = molecular target: recombinant human TfR1 (transferrin receptor 1) (human) (UniProt P02786); assay: ELISA, plate coated with 1 µg/ml recombinant human TfR1, purified VNAR-Fc titrated, 4-parameter fit

recombinant human TfR1 (transferrin receptor 1) (human), sequence (P02786 89-760 limits assumed): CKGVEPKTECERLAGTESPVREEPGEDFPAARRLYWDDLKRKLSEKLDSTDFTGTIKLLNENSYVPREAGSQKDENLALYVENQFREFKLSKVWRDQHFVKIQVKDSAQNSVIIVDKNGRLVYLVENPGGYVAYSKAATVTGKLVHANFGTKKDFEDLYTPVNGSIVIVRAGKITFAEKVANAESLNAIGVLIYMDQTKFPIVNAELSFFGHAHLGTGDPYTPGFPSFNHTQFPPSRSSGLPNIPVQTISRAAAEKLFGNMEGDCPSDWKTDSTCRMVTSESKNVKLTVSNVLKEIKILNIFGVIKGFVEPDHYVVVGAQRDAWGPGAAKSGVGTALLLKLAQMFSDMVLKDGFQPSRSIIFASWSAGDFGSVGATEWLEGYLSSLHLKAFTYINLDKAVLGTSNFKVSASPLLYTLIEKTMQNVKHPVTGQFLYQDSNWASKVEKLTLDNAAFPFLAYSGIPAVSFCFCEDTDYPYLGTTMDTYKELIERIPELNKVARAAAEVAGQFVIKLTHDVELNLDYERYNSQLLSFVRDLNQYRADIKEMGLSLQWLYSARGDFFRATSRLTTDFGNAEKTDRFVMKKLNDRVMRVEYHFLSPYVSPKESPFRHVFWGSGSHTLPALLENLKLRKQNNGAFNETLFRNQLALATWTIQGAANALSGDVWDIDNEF
recombinant mouse TfR1 (transferrin receptor 1) (mouse), sequence (Q62351 89-763 limits assumed): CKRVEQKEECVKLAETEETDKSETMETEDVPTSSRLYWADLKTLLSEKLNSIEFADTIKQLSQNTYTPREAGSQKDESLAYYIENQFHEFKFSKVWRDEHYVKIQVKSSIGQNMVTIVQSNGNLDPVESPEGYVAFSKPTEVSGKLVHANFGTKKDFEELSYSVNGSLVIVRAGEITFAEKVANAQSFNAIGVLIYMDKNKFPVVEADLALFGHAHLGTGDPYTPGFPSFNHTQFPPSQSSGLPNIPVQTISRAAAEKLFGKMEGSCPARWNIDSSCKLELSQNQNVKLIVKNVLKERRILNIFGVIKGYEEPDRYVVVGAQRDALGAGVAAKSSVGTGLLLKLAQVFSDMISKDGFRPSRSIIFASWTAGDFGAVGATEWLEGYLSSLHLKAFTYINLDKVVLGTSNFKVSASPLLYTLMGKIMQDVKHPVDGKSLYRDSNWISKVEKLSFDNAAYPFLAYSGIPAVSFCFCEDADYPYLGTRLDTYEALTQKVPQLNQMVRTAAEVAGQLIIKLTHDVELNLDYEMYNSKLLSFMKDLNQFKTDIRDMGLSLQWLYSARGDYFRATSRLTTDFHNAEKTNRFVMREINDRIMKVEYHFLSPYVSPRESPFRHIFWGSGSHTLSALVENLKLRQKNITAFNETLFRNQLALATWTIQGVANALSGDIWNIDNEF

Substance: F02 control VNAR-Fc (Fc fusion)
- Octet signal as second antibody after 8D3 [1]: 0.381
- Octet signal as second antibody after buffer [2]: 0.386
- Kd [3]: 1.46 nM
- koff [3]: 0.00016 s⁻¹
- kon [3]: 109000 M⁻¹ s⁻¹
- Kd [4]: 0.969 nM
- koff [4]: 0.00011 s⁻¹
- kon [4]: 113000 M⁻¹ s⁻¹
- EC50 [5]: 38.2 nM
- Kd [6]: 0.344 nM
- koff [6]: 0.000147 s⁻¹
- kon [6]: 426000 M⁻¹ s⁻¹
- Octet signal as second antibody after buffer [7]: 0.194
- EC50 [8]: 10 nM
- Kd [9]: 0.294 nM
- koff [9]: 9.86e-05 s⁻¹
- kon [9]: 335000 M⁻¹ s⁻¹
- EC50 [10]: 1 nM
- EC50 [11]: 3.69 nM
